Results on 6 molecules are retold here after patent US20210388081A1 (Memorial Sloan Kettering, published 2021).

The target in assay [1] is T1, FcRL4, overexpressed on 3T3 cells (UniProt Q96PJ5 20-515, limits assumed).
T1 construct: whole, on cells
T1 sequence (looked up): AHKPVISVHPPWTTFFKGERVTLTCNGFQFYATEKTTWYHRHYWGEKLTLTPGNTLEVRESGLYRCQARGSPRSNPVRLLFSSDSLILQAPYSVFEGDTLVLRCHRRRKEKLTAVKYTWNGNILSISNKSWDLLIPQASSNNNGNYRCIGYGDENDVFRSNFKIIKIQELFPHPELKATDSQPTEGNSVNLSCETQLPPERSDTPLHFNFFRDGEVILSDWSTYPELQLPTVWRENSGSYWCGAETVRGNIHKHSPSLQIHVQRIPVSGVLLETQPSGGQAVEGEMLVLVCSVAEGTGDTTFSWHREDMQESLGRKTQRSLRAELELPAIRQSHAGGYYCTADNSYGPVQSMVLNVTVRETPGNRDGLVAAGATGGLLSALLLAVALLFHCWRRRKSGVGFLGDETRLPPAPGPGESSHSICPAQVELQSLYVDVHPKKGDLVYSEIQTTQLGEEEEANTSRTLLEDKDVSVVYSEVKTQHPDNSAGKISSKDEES
Description: phage clone on 3T3-FcRL4 cells.

Assay [2] has as its target T2, FcRL6, overexpressed on 3T3 cells (UniProt Q6DN72 20-434, limits assumed).
T2 construct: whole, on cells
T2 sequence (looked up): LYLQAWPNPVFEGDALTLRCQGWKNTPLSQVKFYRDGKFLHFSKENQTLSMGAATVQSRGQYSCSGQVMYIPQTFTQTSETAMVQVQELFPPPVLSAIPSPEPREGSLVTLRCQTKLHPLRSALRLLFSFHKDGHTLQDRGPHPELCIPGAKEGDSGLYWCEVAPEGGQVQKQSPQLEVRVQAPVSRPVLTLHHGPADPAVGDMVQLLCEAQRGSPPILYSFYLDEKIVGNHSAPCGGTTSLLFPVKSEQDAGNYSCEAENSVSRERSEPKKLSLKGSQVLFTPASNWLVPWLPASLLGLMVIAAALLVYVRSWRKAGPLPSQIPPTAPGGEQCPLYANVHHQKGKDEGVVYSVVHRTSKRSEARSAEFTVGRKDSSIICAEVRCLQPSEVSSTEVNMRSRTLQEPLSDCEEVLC
Description: phage clone on 3T3-FcRL6 cells.

B1: ET200-030 (scFv)
scFv: QSVVTQPPSVSGAPGQRVTISCTGSSSNIGAGYDVNWYQQFPGTAPKLLIYGNSNRPSGVPDRFSGSKSGTSASLAITGLQAEDEADYYCQSYDSSLSGSYVFGTGTKVTVLGSRGGGGSGGGGSGGGGSLEMAQMQLVQSGAEVKKPGASVKVSCKASGYTLTELSMHWVRQAPGKGLEWMGGFDPEDGETIYAQKFQGRVTMTEDTSTDTAYMELSSLRSEDTAVYYCARMSSMYYDWGQGTLVTVSSTSGQAGQHHHHHHGAYPYDVPDYAS
notes: screened as phage clone; entry is VL-linker-VH-His tag-HA tag
As for B1, the binding result in assay [1] and in assay [2] was “no binding” in each case.

B2: ET200-002 (scFv)
scFv: NFMLTQPHSVSESPGKTVTISCTRSSGSIASNYVQWYQQRPGSAPTTVIYEDNQRPSGVPDRFSGSIDSSSNSASLTISGLKTEDEADYYCQSYDSSNSVVFGGGTKLTVLGSRGGGGSGGGGSGGGGSLEMAQVQLVQSGTEVKKPGASVRVACKASGYPFNKYDINWVRQAPGQGLEWMGGIIPIFRTTNYAQKFQGRVTITADESTSTAYMELSSLRSEDTAVYYCAREWFYWDIWGQGTLVTVSSTSGQAGQHHHHHHGAYPYDVPDYAS
notes: as for B1
B2: the binding result in assay [1] and in assay [2] was “no binding” throughout.

B3: ET200-029 (scFv)
scFv: QAVLTQPPSVSVAPGKTARVTCGGNNIGSESVHWYQQKPGQAPVLVIYYDTDRPSGIPERFSGSHSGTTATLTISRVEAGDEADYYCQVWDSSRDHVVFGGGTKLTVLGSRGGGGSGGGGSGGGGSLEMAQVQLVQSGGGVVQPGRSLRLSCAASGFTFSSYAMHWVRQAPGKGLEWVAVISYDGSNKYYADSVKGLFTISRDNSKNTLYLQMNSLRAEDTAVYYCARSYFTSGFYDYWGQGTLVTVSSTSGQAGQHHHHHHGAYPYDVPDYAS
notes: as for B1
For the molecule B3, the binding result in assay [1] and in assay [2] was “no binding” each time.

B4: ET200-031 (scFv)
scFv: SYVLTQPPSVSVAPGKTARITCGGNNIGSKSVHWYQQKPGQAPVLVIYYDSDRPSGIPERFSGSNSGNTATLTISRVEAGDEADYYCQVWDSSSDYVFGTGTKVTVLGSRGGGGSGGGGSGGGGSLEMAEVQLVETGGGLVKPGGSLRLSCAASGFTVSDYYMSWIRQAPGKGLEWISYISGSGNSIYYADSVKGRFTISRDNAKNSLDLQMTSLRAEDTAVYYCARSTKFDYWGQGTLVTVSSTSGQAGQHHHHHHGAYPYDVPDYAS
notes: screened as phage clone; entry is VL-linker-VH-His tag-HA tag; also called ET200-31
As for B4, the binding result in assay [1] and in assay [2] was “no binding” throughout.

B5: ET200-033 (scFv)
scFv: NFMLTQPHSVSESPGKTVTISCTGSSGSIASNYVQWYQQRPGSAPTTVIYEDNQRPSGVPDRFSGSIDSSSNSASLTISGLKTEDEADYYCQSYDSSNHWVFGGGTKLTVLGSRGGGGSGGGGSGGGGSLEMAQVQLQQWGAGLLKPSETLSLTCAVYGGSFSGYYWSWIRQPPGKGLEWIGEITHSGRSNYNPSLKSRVTISVDTSKNQFSLKLSSVTAADTAVYYCARSSIMSDYWGQGTLVTVSSTSGQAGQHHHHHHGAYPYDVPDYAS
notes: as for B1
For the molecule B5, the binding result in assay [1] and in assay [2] was “no binding” each time.

B6: ET200-032 (scFv)
scFv: LPVLTQPPSASGTPGQRVTISCSGSSSNVGSYTVNWYRQLPGTAPTLLIYNNNQRPSGVPDRFSDSKSGTSASLTISGLQPEDEADYYCAAWDDRLGGYVFGTGTKVTVLGSRGGGGSGGGGSGGGGSLEMAEVQLVQSGAEVKKPGESLKISCKGSGYSFTNYWIGWVRQMPGKGLEWMGIIYPGDSDTRYSPSFQGQVTISADKSISTAYLQWSSLKASDTAMYYCARSTGSSHMSDEWGQGTLVTVSSTSGQAGQHHHHHHGAYPYDVPDYAS
notes: as for B1
For the molecule B6, the binding result in assay [1] and in assay [2] was “no binding” throughout.
